Assay results as given in US20140011738A1 (INDIANA UNIVERSITY RESEARCH AND TECHNOLOGY, published 2014).
*1 amine or outer side, *2 acyl side, *3 side chain or, on linkers, in order; H or OH if unused. Where no end group is shown, it is not given here. Side-chain parts run from the residue outwards. [ ]: non-standard residue; d: D form. The star is where a group is joined. γGlu = O=C(O)[C@H](CCC(=O)[*:2])N[*:1]; Palmitoyl = CCCCCCCCCCCCCCCC(=O)*; Aib = CC(C)(N)C(=O)O

Assays:
Experiment in all cases: cell-based or functional assay
[1] = biological target: GLP-1 receptor (UniProt P43220 24-463, limits assumed)
[2] = biological target: T1, GIP receptor (UniProt P48546 22-466, limits assumed)
T1 sequence (looked up): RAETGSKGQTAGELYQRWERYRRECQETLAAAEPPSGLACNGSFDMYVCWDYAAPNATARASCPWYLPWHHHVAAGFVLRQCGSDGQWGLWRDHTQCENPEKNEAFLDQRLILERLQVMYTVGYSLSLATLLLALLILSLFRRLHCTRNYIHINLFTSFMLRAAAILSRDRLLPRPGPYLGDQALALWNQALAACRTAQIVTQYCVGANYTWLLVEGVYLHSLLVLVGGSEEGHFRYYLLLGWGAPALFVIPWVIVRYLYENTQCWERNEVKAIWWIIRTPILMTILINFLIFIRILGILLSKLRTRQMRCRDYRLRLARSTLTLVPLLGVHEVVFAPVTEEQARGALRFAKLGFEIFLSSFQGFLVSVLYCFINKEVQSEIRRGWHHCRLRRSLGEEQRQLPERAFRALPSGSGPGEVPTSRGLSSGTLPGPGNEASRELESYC

[3] = biological target: glucagon receptor (UniProt P47871 26-477, limits assumed)
glucagon receptor, sequence (P47871 26-477 limits assumed): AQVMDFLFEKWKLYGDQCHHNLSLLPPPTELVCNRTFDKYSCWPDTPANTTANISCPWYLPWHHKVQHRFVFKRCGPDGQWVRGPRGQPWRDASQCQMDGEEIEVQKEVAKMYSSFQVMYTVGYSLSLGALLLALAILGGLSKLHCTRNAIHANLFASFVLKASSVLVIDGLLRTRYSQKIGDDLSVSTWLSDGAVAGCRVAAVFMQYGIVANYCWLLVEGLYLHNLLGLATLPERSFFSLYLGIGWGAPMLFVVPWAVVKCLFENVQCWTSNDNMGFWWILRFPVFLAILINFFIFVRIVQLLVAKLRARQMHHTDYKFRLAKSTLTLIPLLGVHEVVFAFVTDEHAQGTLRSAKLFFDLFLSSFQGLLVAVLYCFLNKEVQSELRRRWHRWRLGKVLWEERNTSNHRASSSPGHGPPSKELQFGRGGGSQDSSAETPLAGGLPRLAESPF

GLP-1 receptor, sequence (P43220 24-463 limits assumed): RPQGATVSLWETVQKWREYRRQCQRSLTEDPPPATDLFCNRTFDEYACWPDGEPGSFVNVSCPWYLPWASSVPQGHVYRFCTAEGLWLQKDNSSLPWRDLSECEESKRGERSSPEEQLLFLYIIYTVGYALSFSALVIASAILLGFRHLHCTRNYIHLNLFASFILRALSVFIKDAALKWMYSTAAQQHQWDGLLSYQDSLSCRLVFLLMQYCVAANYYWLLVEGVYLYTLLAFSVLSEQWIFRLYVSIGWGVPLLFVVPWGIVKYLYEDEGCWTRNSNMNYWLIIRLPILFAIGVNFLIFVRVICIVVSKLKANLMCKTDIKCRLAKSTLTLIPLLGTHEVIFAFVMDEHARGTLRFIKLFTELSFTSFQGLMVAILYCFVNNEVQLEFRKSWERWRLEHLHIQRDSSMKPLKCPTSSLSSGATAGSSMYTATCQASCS

Binder: H[Aib]QGTFTSDYSKYLDERAAQDFVQWLLDGGPSSGAPPPSK([γGlu-γGlu-Palmitoyl])G-NH2 [peptide of SEQ ID NO: 11]
- EC50 at GLP-1 Receptor [1]: 1 pM
- EC50 at GIP Receptor [2]: 0.024 nM
- EC50 at Glucagon Receptor [3]: 4 pM

Binder: H[Aib]QGTFTSDYAKYLDERAAQDFVQWLLDGGPSSGAPPPSK([γGlu-γGlu-Palmitoyl])G-NH2 [peptide of SEQ ID NO: 17]
- EC50 at GLP-1 Receptor [1]: 8 pM
- EC50 at GIP Receptor [2]: 0.02 nM
- EC50 at Glucagon Receptor [3]: 19 pM

Binder: H[Aib]QGTFTSDYSKYLEERAAQDFVQWLLDGGPSSGAPPPSK([γGlu-γGlu-Palmitoyl])G-NH2 [peptide of SEQ ID NO: 15]
- EC50 at GLP-1 Receptor [1]: 3 pM
- EC50 at GIP Receptor [2]: 0.008 nM
- EC50 at Glucagon Receptor [3]: 5 pM

Binder: H[Aib]QGTFTSDK([γGlu-Palmitoyl])SKYLDERAAQDFVQWLLDGGPSSGAPPPS-NH2 [peptide of SEQ ID NO: 10]
- EC50 at GLP-1 Receptor [1]: 4 pM
- EC50 at GIP Receptor [2]: 0.004 nM
- EC50 at Glucagon Receptor [3]: 4 pM

B1: peptide of SEQ ID NO: 44 (peptide)
peptide: H[Aib]EGTFTSDK([γGlu-Palmitoyl])SKYLDERAAQDFVQWLLEGGPSSGAPPPS-NH2
modifications: N-terminus assumed
SMILES: CCCCCCCCCCCCCCCC(=O)N[C@@H](CCC(=O)NCCCC[C@H](NC(=O)[C@H](CC(=O)O)NC(=O)[C@H](CO)NC(=O)[C@@H](NC(=O)[C@H](Cc1ccccc1)NC(=O)[C@@H](NC(=O)CNC(=O)[C@H](CCC(=O)O)NC(=O)C(C)(C)NC(=O)[C@@H](N)Cc1c[nH]cn1)[C@@H](C)O)[C@@H](C)O)C(=O)N[C@@H](CO)C(=O)N[C@@H](CCCCN)C(=O)N[C@@H](Cc1ccc(O)cc1)C(=O)N[C@@H](CC(C)C)C(=O)N[C@@H](CC(=O)O)C(=O)N[C@@H](CCC(=O)O)C(=O)N[C@@H](CCCNC(=N)N)C(=O)N[C@@H](C)C(=O)N[C@@H](C)C(=O)N[C@@H](CCC(N)=O)C(=O)N[C@@H](CC(=O)O)C(=O)N[C@@H](Cc1ccccc1)C(=O)N[C@H](C(=O)N[C@@H](CCC(N)=O)C(=O)N[C@@H](Cc1c[nH]c2ccccc12)C(=O)N[C@@H](CC(C)C)C(=O)N[C@@H](CC(C)C)C(=O)N[C@@H](CCC(=O)O)C(=O)NCC(=O)NCC(=O)N1CCC[C@H]1C(=O)N[C@@H](CO)C(=O)N[C@@H](CO)C(=O)NCC(=O)N[C@@H](C)C(=O)N1CCC[C@H]1C(=O)N1CCC[C@H]1C(=O)N1CCC[C@H]1C(=O)N[C@@H](CO)C(N)=O)C(C)C)C(=O)O
- EC50 at GLP-1 Receptor [1]: 7 pM
- EC50 at GIP Receptor [2]: 0.027 nM
- EC50 at Glucagon Receptor [3]: 1470 pM

Binder: H[Aib]QGTFTSEYSKYLDERAAQDFVQWLLDGGPSSGAPPPSK([γGlu-γGlu-Palmitoyl])G-NH2 [peptide of SEQ ID NO: 16]
- EC50 at GLP-1 Receptor [1]: 2 pM
- EC50 at GIP Receptor [2]: 0.054 nM
- EC50 at Glucagon Receptor [3]: 28 pM

B2: peptide of SEQ ID NO: 43 (peptide)
peptide: H[Aib]QGTFTSDK([γGlu-Palmitoyl])SKYLDERAAQDFVQWLLEGGPSSGAPPPS-NH2
modifications: N-terminus assumed
SMILES: CCCCCCCCCCCCCCCC(=O)N[C@@H](CCC(=O)NCCCC[C@H](NC(=O)[C@H](CC(=O)O)NC(=O)[C@H](CO)NC(=O)[C@@H](NC(=O)[C@H](Cc1ccccc1)NC(=O)[C@@H](NC(=O)CNC(=O)[C@H](CCC(N)=O)NC(=O)C(C)(C)NC(=O)[C@@H](N)Cc1c[nH]cn1)[C@@H](C)O)[C@@H](C)O)C(=O)N[C@@H](CO)C(=O)N[C@@H](CCCCN)C(=O)N[C@@H](Cc1ccc(O)cc1)C(=O)N[C@@H](CC(C)C)C(=O)N[C@@H](CC(=O)O)C(=O)N[C@@H](CCC(=O)O)C(=O)N[C@@H](CCCNC(=N)N)C(=O)N[C@@H](C)C(=O)N[C@@H](C)C(=O)N[C@@H](CCC(N)=O)C(=O)N[C@@H](CC(=O)O)C(=O)N[C@@H](Cc1ccccc1)C(=O)N[C@H](C(=O)N[C@@H](CCC(N)=O)C(=O)N[C@@H](Cc1c[nH]c2ccccc12)C(=O)N[C@@H](CC(C)C)C(=O)N[C@@H](CC(C)C)C(=O)N[C@@H](CCC(=O)O)C(=O)NCC(=O)NCC(=O)N1CCC[C@H]1C(=O)N[C@@H](CO)C(=O)N[C@@H](CO)C(=O)NCC(=O)N[C@@H](C)C(=O)N1CCC[C@H]1C(=O)N1CCC[C@H]1C(=O)N1CCC[C@H]1C(=O)N[C@@H](CO)C(N)=O)C(C)C)C(=O)O
- EC50 at GLP-1 Receptor [1]: 4 pM
- EC50 at GIP Receptor [2]: 0.005 nM
- EC50 at Glucagon Receptor [3]: 6 pM

B3: peptide of SEQ ID NO: 18 (peptide)
peptide: H[Aib]QGTFTSDK([γGlu-Palmitoyl])SKYLEERAAQEFVQWLLEGGPSSGAPPPS-NH2
modifications: N-terminus assumed
SMILES: CCCCCCCCCCCCCCCC(=O)N[C@@H](CCC(=O)NCCCC[C@H](NC(=O)[C@H](CC(=O)O)NC(=O)[C@H](CO)NC(=O)[C@@H](NC(=O)[C@H](Cc1ccccc1)NC(=O)[C@@H](NC(=O)CNC(=O)[C@H](CCC(N)=O)NC(=O)C(C)(C)NC(=O)[C@@H](N)Cc1c[nH]cn1)[C@@H](C)O)[C@@H](C)O)C(=O)N[C@@H](CO)C(=O)N[C@@H](CCCCN)C(=O)N[C@@H](Cc1ccc(O)cc1)C(=O)N[C@@H](CC(C)C)C(=O)N[C@@H](CCC(=O)O)C(=O)N[C@@H](CCC(=O)O)C(=O)N[C@@H](CCCNC(=N)N)C(=O)N[C@@H](C)C(=O)N[C@@H](C)C(=O)N[C@@H](CCC(N)=O)C(=O)N[C@@H](CCC(=O)O)C(=O)N[C@@H](Cc1ccccc1)C(=O)N[C@H](C(=O)N[C@@H](CCC(N)=O)C(=O)N[C@@H](Cc1c[nH]c2ccccc12)C(=O)N[C@@H](CC(C)C)C(=O)N[C@@H](CC(C)C)C(=O)N[C@@H](CCC(=O)O)C(=O)NCC(=O)NCC(=O)N1CCC[C@H]1C(=O)N[C@@H](CO)C(=O)N[C@@H](CO)C(=O)NCC(=O)N[C@@H](C)C(=O)N1CCC[C@H]1C(=O)N1CCC[C@H]1C(=O)N1CCC[C@H]1C(=O)N[C@@H](CO)C(N)=O)C(C)C)C(=O)O
- EC50 at GLP-1 Receptor [1]: 8 pM
- EC50 at GIP Receptor [2]: 0.007 nM
- EC50 at Glucagon Receptor [3]: 7 pM
